According to patent US9540654B2, “Synthetic brassica-derived chloroplast transit peptides” (Dow AgroSciences LLC, priority 2012, dated 2017):

B1: TraP23: chloroplast transit peptide (SEQ ID NO:41) linked with dgt-28 or dgt-31 (protein)
chain: MAQINKSANGVRNASLISNFSNTRQAKSPFSLSCGTRLKNSSRGLKKVAVRLIGSRVKVSAS
modifications: Chloroplast Transit Peptide
B2: TraP13: chimeric chloroplast transit peptide SEQ ID NO:8, N-terminus from Arabidopsis thaliana, C-terminus from Brassica napus EPSPS (protein)
chain: MAQVSRICNGVQNPSLISNLSKSSQRKSPLSVSLKTQQPRASSWGLKKSGTMLNGSVIRPVKVTASVS
modifications: TraP13 chloroplast transit peptide
B3: TraP8: chloroplast transit peptide (SEQ ID NO:30) linked with dgt-28 (protein)
chain: MAQSSRICHGVQNPCVIISNLSKSNQNKSPFSVSLKTHQQQRRAYQISSWGLKKSNNGSVIRPVKA
modifications: Chloroplast Transit Peptide
B4: TraP5: chloroplast transit peptide (SEQ ID NO:29) linked with dgt-28 (protein)
chain: MQLLNQRQALRLGRSSASKNQQVAPLASRPASSLSVSASSVAPAPACSAPAGAGRRAVVVRA
modifications: Chloroplast Transit Peptide

How the values were obtained:
Zea mays B104 = experiment: Post-emergence glyphosate tolerance of dgt-28 T0 corn (greenhouse); assay type: in vivo; details: for protection to glyphosate: T0 corn, dgt-28 linked to the transit peptide
Procedure: Zea mays dgt-28 transformation events (T0) were allowed to acclimate in the greenhouse and were grown until plants had transitioned from tissue culture to greenhouse growing conditions (i.e., 2-4 new, normal looking leaves had emerged from the whorl). Plants were grown at 27° C. under 16 hour light:8 hour dark conditions in the greenhouse. The plants were then treated with commercial formulations of DURANGO DMA™ (containing the herbicide glyphosate) with the addition of 2% w/v ammonium-sulfate. Herbicide applications were made with a track sprayer at a spray volume of 187 L/ha, 50-cm spray height. T0 plants were sprayed with a range of glyphosate from 280-4480 g ae/ha glyphosate, which is capable of significant injury to untransformed corn lines. A lethal dose is defined as the rate that causes >95% injury to the B104 inbred.
T0 events of dgt-28 linked with TraP4, TraP5, TraP8 and TraP23 were generated by Agrobacterium transformation and were allowed to acclimate under controlled growth chamber conditions until 2-4 new, normal looking leaves had emerged from the whorl. Plants were assigned individual identification numbers and sampled for copy number analyses of both dgt-28 and aad-1. Based on copy number analyses, plants were selected for protein expression analyses. Plants were transplanted into larger pots with new growing media and grown at 27° C. under 16 hour light:8 hour dark conditions in the greenhouse. Remaining plants that were not sampled for protein expression were then treated with commercial formulations of DURANGO DMA™ (glyphosate) with the addition of 2% w/v ammonium-sulfate. Treatments were distributed so that each grouping of plants contained T0 events of varying copy number. Herbicide applications were made with a track sprayer at a spray volume of 187 L/ha, 50-cm spray height. T0 plants were sprayed with a range of glyphosate from 280-4480 g ae/ha glyphosate capable of significant injury to untransformed corn lines. A lethal dose is defined as the rate that causes >95% injury to the B104 inbred. B104 was the genetic background of the transformants.

[1] = system: tobacco (cv. Petit Havana); experiment: Postemergence glyphosate tolerance of dgt-28 tobacco (T1, T2); assay type: in vivo; details: T1 tobacco, 2240 g ae/ha glyphosate, 14 DAT
Excerpt: T1 resistant plants from each event used in the progeny testing were given unique identifiers and sampled for zygosity analyses of the dgt-28 gene. Zygosity data were used to assign 2 hemizygous and 2 homozygous replicates to each rate of glyphosate applied allowing for a total of 4 replicates per treatment. These plants were compared against wildtype Petite havana tobacco. All plants were sprayed with a track sprayer set at 187 L/ha. The plants were sprayed from a range of 560-4480 g ae/ha DURANGO DMA™. All applications were formulated in water with the addition of 2% w/v ammonium sulfate (AMS). Plants were evaluated at 7 and 14 days after treatment. Plants were assigned an injury rating with respect to overall visual stunting, chlorosis, and necrosis. The T1 generation is segregating, so some variable response is expected due to difference in zygosity.
Rates of DURANGO DMA™ ranging from 420-3360 g ae/ha glyphosate were applied to 2-3 leaf tobacco as previously described.

[2] = system: chloroplasts of the tobacco leaf tissue; experiment: Tobacco transient assay, confocal microscopy of TraP-YFP; assay type: cell-based, Nicotiana benthamiana; details: Agrobacterium-infiltrated tobacco leaves
Excerpt: The Trap12 and TraP13 chimeric chloroplast transit peptide sequences were initially tested via a transient in planta assay. Polynucleotide sequences which encode the Trap12 (SEQ ID NO:5) and TraP13 (SEQ ID NO:7) chimeric chloroplast transit peptide sequences were synthesized. A linker sequence (SEQ ID NO:10) was incorporated between the TraP sequence and the yfp coding sequence. The resulting constructs contained two plant transcription units (PTU). The first PTU was comprised of the Arabidopsis thaliana Ubiquitin 10 promoter (AtUbi10 promoter; Callis, et al., (1990) J. Biol. Chem., 265: 12486-12493), Trap yellow fluorescent protein fusion gene (TraP-YFP; US Patent App. 2007/0298412), and Agrobacterium tumefaciens ORF 23 3′ untranslated region (AtuORF23 3′UTR; U.S. Pat. No. 5,428,147). […]
Agrobacterium-infiltrated tobacco leaves were severed from the plant, and placed into a petri-dish with water to prevent dehydration. The infiltrated tobacco leaves were observed under blue light excitation with long-pass filter glasses held in place using a Dark Reader Hand Lamp™ (Clare Chemical Research Co.; Dolores, Colo.) to identify undamaged areas of the leaf that were successfully expressing the YFP reporter proteins. […]

Molecule | glyphosate concentration controlling non-transformed plants (Zea mays B104; non-transformed corn plants) [g ae/ha] | protection to glyphosate (Zea mays B104) | % Injury Ave [1] [%] | localization of YFP fluorescence signal (microscopy imaging) [2]
O=C(O)CNCP(=O)(O)O [glyphosate, reference compound] | ≥ 280 |  |  | 
B1 |  | robust protection | 9.5 | 
B2 |  |  |  | accumulated within the chloroplasts
B3 |  | robust protection | 9.3 | 
B4 |  | robust protection |  | 
